The values that follow come from patent US20220406376A1 (MacroGenics, published 2022).

For orientation: EC50 (read off the curve) means the concentration at which the effect is half-maximal. For orientation: koff means the first-order rate constant of dissociation. The term Kd denotes the constant that tells how readily two partners part at equilibrium. For orientation: kon means a measure of how fast the partners come together.

Assay [1] addresses T1, HER2/neu on the surface of target cells (N87, JIMT-1, MCF-7, MDA-MB231) (UniProt P04626 23-1255, limits assumed).
T1 construct: whole, on cells
Put plainly: flow cytometry on JIMT-1 cells, anti-hFc APC MFI. How it is done:
(§1) CD137×TA Binding Molecules, DART-B, DART-D, DART-G and the control molecules DART-3 and DART-6 were additionally evaluated for their ability to bind to HER2/neu expressed on N87 cells (FIG. 13A) and JIMT-1 cells (FIG. 13B). For such evaluation, 100 μL of HER2/neu expressing target cells (1.0×1⁰⁶ cells/mL) and 100 μL of serially diluted (5- or 10-fold dilutions) test article (bispecific diabody) were added to each well of microtiter assay plate(s), mixed and incubated at RT for 45 min. The cells were washed with FACS Buffer and secondary antibody (anti-human-Fc region-APC) was then added to each well; mixed and incubated at RT for 30 min. Cells were washed and resuspended in 100 μL FACS Buffer and analyzed by flow cytometry (BD LSR Fortessa or FACSCanto 11) for cell event collection. Data analysis were performed via FloJo v10.

Assay [2] addresses T2, CD137 on the surface of cells (activated human T cells; engineered CHO cells) (human, UniProt Q07011 24-255).
T2 construct: whole, on cells; also called human CD137; cell surface expressed CD137
Put plainly: flow cytometry on activated CD8+ T cells (CD8 FITC), anti-hFc APC MFI.

Assay [3] deals with T3, extracellular portion of cynomolgus monkey CD137 fused to a histidine-containing peptide (cynomolgus monkey, UniProt A9YYE7 24-186).
T3 construct: extracellular domain; also called cynoCD137
T3 sequence: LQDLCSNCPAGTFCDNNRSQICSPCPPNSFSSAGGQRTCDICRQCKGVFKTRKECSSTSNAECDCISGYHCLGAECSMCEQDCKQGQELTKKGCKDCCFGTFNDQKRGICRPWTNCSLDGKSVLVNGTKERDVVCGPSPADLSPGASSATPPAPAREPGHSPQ
Put plainly: SPR (BIACORE); molecule captured on anti-human Fc; cynoCD137 6.25-100 nM; column head ×10^-4 applied as printed. How it is done: (§2) The amino acid sequences of these clones were incorporated into the 5 chain diabody DART-G to yield optimized DART-G molecules (designated as DART-G1, DART-G2; DART-G3, and DART-G4). The binding affinity of DART-G2, DART-G3, and DART-G4 were evaluated via BIAcore (Table 11). For such evaluation, His-tagged soluble human CD137 (huCD137) or cynomolgus monkey CD137 (cynoCD137) (containing an extracellular portion of human or cynomolgus monkey CD137 fused to a histidine-containing peptide) was passed over a surface coated with immobilized antibody. Briefly, each test molecule was captured onto an F(ab)₂ goat-anti-human Fc-coated surface and then incubated in the presence of different concentrations (6.25-100 nM) of huCD137 or cynoCD137. The kinetics of binding were determined via BIACORE® analysis binding (normalized 1:1 Langmuir binding model).
Background: SPR reads the build-up and loss of mass on a sensor chip optically.

The target of assay [4] is T2, CD137 on the surface of cells …. Kind of assay: flow cytometry on CD137-expressing CHO cells (CHO/137), anti-hFc APC MFI. Background: Flow cytometry measures light scatter and fluorescence of single cells or particles in a stream.
For assay [5], the target named is T1, HER2/neu on the surface of target cells …. Put plainly: flow cytometry on N87 gastric cancer cells, anti-hFc APC MFI.
Assay [6] has as its target T3, extracellular portion of cynomolgus …. Kind of assay: SPR (BIACORE); molecule captured on anti-human Fc; cynoCD137 6.25-100 nM; 1:1 Langmuir. How it is done: as §2
The target in assay [7] is T1, HER2/neu on the surface of target cells …. Put plainly: flow cytometry on N87 cells, anti-hFc APC MFI. How it is done: as §1
The target of assay [8] is T4, extracellular portion of human CD137 fused to a histidine-containing peptide (human, UniProt Q07011 24-186).
T4 construct: extracellular domain; also called huCD137; His-tagged soluble human CD137
Put plainly: SPR (BIACORE); molecule captured on anti-human Fc; huCD137 6.25-100 nM; 1:1 Langmuir. How it is done:
as §2

The target in assay [9] is T2, CD137 on the surface of cells …. Put plainly: flow cytometry on activated pan T cells gated CD8, anti-hFc APC MFI.
The target is the same in assay [10]. The description is as above. The source holds these as a separate data set.
In assay [11] the target is T1, HER2/neu on the surface of target cells …. Put plainly: flow cytometry on N87 gastric cancer cells, anti-hFc APC MFI. This is another data set of the same source.

T2 sequence (Q07011 24-255, change not shown): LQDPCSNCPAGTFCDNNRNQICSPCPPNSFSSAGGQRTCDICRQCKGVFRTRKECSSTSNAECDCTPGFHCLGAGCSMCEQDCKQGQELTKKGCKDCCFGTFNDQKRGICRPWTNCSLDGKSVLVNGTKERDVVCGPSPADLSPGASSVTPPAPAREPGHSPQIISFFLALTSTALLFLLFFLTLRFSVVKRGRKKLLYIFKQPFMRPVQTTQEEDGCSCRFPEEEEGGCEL

B1: DART-D (bispecific antibody, human IgG1, kappa, L234A L235A)
heavy: QVQLVQSGAEVKKPGASVKVSCKASGYTFTNYGMNWVRQAPGQGLEWMGWINTNIGEPTYTEEFKGRVTMTRDTSISTAYMELSRLRSDDTAVYYCARDDGYGNRVSYWGQGTLVTVSSASTKGPSVFPLAPSSKSTSGGTAALGCLVKDYFPEPVTVSWNSGALTSGVHTFPAVLQSSGLYSLSSVVTVPSSSLGTQTYICNVNHKPSNTKVDKRVEPKSCDKTHTCPPCPAPEAAGGPSVFLFPPKPKDTLMISRTPEVTCVVVDVSHEDPEVKFNWYVDGVEVHNAKTKPREEQYNSTYRVVSVLTVLHQDWLNGKEYKCKVSNKALPAPIEKTISKAKGQPREPQVYTLPPSREEMTKNQVSLSCAVKGFYPSDIAVEWESNGQPENNYKTTPPVLDSDGSFFLVSKLTVDKSRWQQGNVFSCSVMHEALHNRYTQKSLSLSPGK
light: DIQMTQSPSSLSASVGDRVTITCKASQDISNYLSWFQQKPGKAPKTLIYRANRLQSGVPSRFSGSGSGTDFTLTISSLQPEDFATYYCLQHDEFPWTFGQGTKLEIKRTVAAPSVFIFPPSDEQLKSGTASVVCLLNNFYPREAKVQWKVDNALQSGNSQESVTEQDSKDSTYSLSSTLTLSKADYEKHKVYACEVTHQGLSSPVTKSFNRGEC
chain 1: QVQLVQSGAEVKKPGASVKVSCKASGYTFTNYGMNWVRQAPGQGLEWMGWINTNIGEPTYTEEFKGRVTMTRDTSISTAYMELSRLRSDDTAVYYCARDDGYGNRVSYWGQGTLVTVSSASTKGPSVFPLAPSSKSTSGGTAALGCLVKDYFPEPVTVSWNSGALTSGVHTFPAVLQSSGLYSLSSVVTVPSSSLGTQTYICNVNHKPSNTKVDKRVEPKSCDKTHTCPPCPAPEAAGGPSVFLFPPKPKDTLMISRTPEVTCVVVDVSHEDPEVKFNWYVDGVEVHNAKTKPREEQYNSTYRVVSVLTVLHQDWLNGKEYKCKVSNKALPAPIEKTISKAKGQPREPQVYTLPPSREEMTKNQVSLWCLVKGFYPSDIAVEWESNGQPENNYKTTPPVLDSDGSFFLYSKLTVDKSRWQQGNVFSCSVMHEALHNHYTQKSLSLSPGGGGSGGGSGGGDIQMTQTTSSLSASLGDRVTISCRPSQDISNYLNWYQQKPDGTVKLLIYYTSRLRSGVPSRFSGSGSGTDYSLTISNLEQEDIATYFCQQGDTLPYTFGGGTKLEIKGGGSGGGGQVQLQQPGAELVRPGASVKLSCKASGYTFTSYWINWVKQRPGQGLEWIGNIYPSDSYTNYNQKFKDKATLTVDKSSSTAYMQLSSPTSEDSAVYYCTRDYGSSYSFDYWGQGTTLTVSSGGCGGGEVAALEKEVAALEKEVAALEKEVAALEK
chain 2: DIQMTQTTSSLSASLGDRVTISCRPSQDISNYLNWYQQKPDGTVKLLIYYTSRLRSGVPSRFSGSGSGTDYSLTISNLEQEDIATYFCQQGDTLPYTFGGGTKLEIKGGGSGGGGQVQLQQPGAELVRPGASVKLSCKASGYTFTSYWINWVKQRPGQGLEWIGNIYPSDSYTNYNQKFKDKATLTVDKSSSTAYMQLSSPTSEDSAVYYCTRDYGSSYSFDYWGQGTTLTVSSGGCGGGKVAALKEKVAALKEKVAALKEKVAALKE
In the case of B1, the “EC50 (read off the curve)” value was roughly 0.03 µg/mL in assay [1]; roughly 0.02 µg/mL in assay [2]; roughly 0.02 µg/mL in assay [4]; roughly 0.5 nM in assay [5]; roughly 0.07 µg/mL in assay [7]; roughly 0.2 nM in assay [9]. The “EC50 (read off the curve)” value in assay [10] was roughly 0.2 nM; in assay [11], roughly 0.5 nM. For the same molecule, the results for the koff in assay [3] and in assay [8] were 0.031 s⁻¹ and 0.025 s⁻¹, respectively. Moreover, the Kd in [6] was 67 nM; in assay [8], 53 nM. In addition, the kon turned out to be 460000 M⁻¹ s⁻¹ in assay [6] and 470000 M⁻¹ s⁻¹ in assay [8].
